Measurements reported in US20250376534A1 (ORNA THERAPEUTICS, published 2025).
Where no end group is shown, it is not given here.

Columns and labels:
[1] = target: T1, BCMA CAR encoded by circular RNA formed from DNA Template J; experiment: flow cytometry, live T cells 24 h after electroporation with 50 ng circRNA per 0.1x10^6 T cells; second of two values
T1 construct: also called Construct J
Description: (§1) Donor T cells were thawed and activated with anti-CD3/CD28 solutions. Three days after activation, the cells were washed. […] Circular RNAs were formed from DNA templates present in Table 28 and/or 30. The cells were given a commercially available soluble BCMA detection reagent containing R-phycoerythrin (PE) fluorophore (e.g., from AcroBiosystems, Delaware), anti-Whitlow PE detection reagent, or anti-G4S linker detection reagent (e.g., G4S-AF647).

[2] = target: T2, CD19-CD28ζ CAR encoded by circular RNA formed from DNA Template F; experiment: as above
T2 construct: also called Construct F
T2 sequence (chain, as listed by the source limits assumed): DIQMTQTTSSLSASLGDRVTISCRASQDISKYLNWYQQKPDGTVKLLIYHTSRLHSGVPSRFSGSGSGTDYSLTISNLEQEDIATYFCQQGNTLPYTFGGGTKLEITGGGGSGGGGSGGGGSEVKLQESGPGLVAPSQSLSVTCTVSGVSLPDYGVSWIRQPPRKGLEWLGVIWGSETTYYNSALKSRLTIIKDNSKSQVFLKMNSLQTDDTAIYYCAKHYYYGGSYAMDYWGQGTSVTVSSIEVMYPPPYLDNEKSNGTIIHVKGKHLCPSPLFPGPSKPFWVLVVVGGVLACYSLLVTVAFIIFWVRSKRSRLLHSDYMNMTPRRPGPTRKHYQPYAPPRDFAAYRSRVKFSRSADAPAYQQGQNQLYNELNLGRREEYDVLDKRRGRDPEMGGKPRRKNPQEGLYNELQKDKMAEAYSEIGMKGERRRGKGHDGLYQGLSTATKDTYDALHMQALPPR
Description: as §1

[3] = target: T3, BCMA CAR encoded by circular RNA formed from DNA Template H; experiment: as above
T3 construct: also called Construct H
T3 sequence (chain, as listed by the source limits assumed): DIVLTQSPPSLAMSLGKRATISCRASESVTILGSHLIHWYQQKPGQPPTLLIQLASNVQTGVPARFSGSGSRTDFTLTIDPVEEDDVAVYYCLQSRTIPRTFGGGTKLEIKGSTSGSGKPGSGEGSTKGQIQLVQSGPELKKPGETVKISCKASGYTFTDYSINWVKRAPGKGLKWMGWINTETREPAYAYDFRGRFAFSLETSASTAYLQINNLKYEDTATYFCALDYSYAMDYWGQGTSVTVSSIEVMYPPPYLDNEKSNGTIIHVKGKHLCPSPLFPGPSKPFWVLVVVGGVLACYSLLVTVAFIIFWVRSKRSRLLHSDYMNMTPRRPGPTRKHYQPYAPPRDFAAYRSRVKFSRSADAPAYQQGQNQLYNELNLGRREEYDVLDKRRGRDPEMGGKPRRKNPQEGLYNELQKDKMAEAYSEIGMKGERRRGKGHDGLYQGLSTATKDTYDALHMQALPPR
Description: as §1

[4] = target: T4, BCMA-41BBζ CAR encoded by circular RNA formed from DNA Template A; experiment: as above
T4 construct: also called Construct A
T4 sequence (chain, as listed by the source): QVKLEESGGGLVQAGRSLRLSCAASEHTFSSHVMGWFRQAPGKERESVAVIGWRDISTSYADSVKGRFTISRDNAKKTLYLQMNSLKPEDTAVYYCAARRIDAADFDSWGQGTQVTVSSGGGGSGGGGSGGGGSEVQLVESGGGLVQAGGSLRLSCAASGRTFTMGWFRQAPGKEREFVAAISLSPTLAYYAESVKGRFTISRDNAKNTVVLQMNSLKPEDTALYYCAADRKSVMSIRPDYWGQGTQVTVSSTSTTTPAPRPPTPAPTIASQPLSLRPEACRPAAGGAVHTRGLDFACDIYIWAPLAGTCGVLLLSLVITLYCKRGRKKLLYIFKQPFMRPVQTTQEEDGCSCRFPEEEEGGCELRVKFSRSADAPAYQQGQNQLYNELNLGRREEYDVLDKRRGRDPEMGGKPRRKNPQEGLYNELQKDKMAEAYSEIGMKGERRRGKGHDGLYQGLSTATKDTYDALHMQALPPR
Description: as §1

[5] = target: T5, BCMA CAR encoded by circular RNA formed from DNA Template I; experiment: as above
T5 construct: also called Construct I
T5 sequence (chain, as listed by the source limits assumed): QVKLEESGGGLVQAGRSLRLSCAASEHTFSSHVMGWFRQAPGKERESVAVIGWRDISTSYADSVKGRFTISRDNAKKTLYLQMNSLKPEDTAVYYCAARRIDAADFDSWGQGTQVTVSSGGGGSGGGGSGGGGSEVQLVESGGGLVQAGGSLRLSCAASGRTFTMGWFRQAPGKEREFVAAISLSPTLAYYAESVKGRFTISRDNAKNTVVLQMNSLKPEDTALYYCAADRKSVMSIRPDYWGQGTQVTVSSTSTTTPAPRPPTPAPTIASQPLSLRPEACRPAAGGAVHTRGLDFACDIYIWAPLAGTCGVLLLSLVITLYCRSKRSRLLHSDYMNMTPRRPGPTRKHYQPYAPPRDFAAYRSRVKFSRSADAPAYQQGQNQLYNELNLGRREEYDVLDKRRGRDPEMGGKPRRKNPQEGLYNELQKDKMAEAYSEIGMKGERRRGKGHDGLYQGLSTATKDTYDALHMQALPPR
Description: as §1

[6] = target: T6, BCMA CAR encoded by circular RNA formed from DNA Template G; experiment: as above
T6 construct: also called Construct G
T6 sequence (chain, as listed by the source limits assumed): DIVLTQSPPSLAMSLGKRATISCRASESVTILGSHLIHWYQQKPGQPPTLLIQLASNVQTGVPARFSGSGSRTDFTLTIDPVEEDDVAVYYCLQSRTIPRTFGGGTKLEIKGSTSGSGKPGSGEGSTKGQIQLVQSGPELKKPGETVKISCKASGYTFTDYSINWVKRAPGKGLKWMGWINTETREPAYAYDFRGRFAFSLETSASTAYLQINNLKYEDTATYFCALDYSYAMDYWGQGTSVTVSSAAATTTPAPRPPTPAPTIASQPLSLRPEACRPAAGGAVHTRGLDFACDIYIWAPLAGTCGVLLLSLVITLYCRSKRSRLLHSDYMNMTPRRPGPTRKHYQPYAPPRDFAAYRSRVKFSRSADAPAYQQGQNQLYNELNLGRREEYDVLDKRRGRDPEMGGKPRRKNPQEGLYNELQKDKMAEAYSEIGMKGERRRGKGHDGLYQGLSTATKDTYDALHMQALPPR
Description: as §1

[7] = target: T1, BCMA CAR encoded by circular RNA formed …; experiment: flow cytometry, live T cells 24 h after electroporation with 50 ng circRNA per 0.1x10^6 T cells; first of two values
Description: as §1

[8] = target: T2, CD19-CD28ζ CAR encoded by circular RNA …; experiment: as above
Description: as §1

[9] = target: T3, BCMA CAR encoded by circular RNA formed …; experiment: as above
Description: as §1

[10] = target: T4, BCMA-41BBζ CAR encoded by circular RNA …; experiment: as above
Description: as §1

[11] = target: T5, BCMA CAR encoded by circular RNA formed …; experiment: as above
Description: as §1

[12] = target: T6, BCMA CAR encoded by circular RNA formed …; experiment: as above
Description: as §1

T1 sequence (chain, as listed by the source limits assumed): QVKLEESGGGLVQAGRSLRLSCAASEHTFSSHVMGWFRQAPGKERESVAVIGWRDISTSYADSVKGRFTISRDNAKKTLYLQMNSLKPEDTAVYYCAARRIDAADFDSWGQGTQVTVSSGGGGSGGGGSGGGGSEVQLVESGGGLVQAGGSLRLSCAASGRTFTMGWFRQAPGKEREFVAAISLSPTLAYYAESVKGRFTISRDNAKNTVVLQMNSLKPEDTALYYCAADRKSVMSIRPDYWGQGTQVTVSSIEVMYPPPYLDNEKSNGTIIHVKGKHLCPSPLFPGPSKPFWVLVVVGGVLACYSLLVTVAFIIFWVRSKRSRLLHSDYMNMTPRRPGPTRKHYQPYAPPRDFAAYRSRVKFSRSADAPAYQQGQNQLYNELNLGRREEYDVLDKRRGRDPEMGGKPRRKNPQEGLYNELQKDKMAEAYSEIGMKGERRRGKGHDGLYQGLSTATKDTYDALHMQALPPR

gMFI [1]: 93400 | gMFI [2]: 81.5 | gMFI [3]: 59700 | gMFI [4]: 66300 | gMFI [5]: 58000 | gMFI [6]: 18900 | gMFI [7]: 84700 | gMFI [8]: 71.7 | gMFI [9]: 57800 | gMFI [10]: 61500 | gMFI [11]: 57400 | gMFI [12]: 18200
B1: soluble BCMA detection reagent containing R-phycoerythrin (PE) fluorophore (receptor, UniProt Q02223 1-54, looked up)
chain: MLQMAGQCSQNEYFDSLLHACIPCQLRCSSNTPPLTCQRYCNASVTNSVKGTNA
modifications: cysteine pairing not given here; also: conjugated to R-phycoerythrin (PE) fluorophore, site not given here
notes: also called soluble BCMA-PE; sBCMA-PE
